Where two headings read alike, the source gives them in different places.
Experiments:
Test in all cases: fluorescence anisotropy
[1] = molecular target: T1, Dpo4 (SsoDpo4, Y-family DNA polymerase) (Sulfolobus solfataricus, UniProt Q97W02 1-352)
T1 sequence: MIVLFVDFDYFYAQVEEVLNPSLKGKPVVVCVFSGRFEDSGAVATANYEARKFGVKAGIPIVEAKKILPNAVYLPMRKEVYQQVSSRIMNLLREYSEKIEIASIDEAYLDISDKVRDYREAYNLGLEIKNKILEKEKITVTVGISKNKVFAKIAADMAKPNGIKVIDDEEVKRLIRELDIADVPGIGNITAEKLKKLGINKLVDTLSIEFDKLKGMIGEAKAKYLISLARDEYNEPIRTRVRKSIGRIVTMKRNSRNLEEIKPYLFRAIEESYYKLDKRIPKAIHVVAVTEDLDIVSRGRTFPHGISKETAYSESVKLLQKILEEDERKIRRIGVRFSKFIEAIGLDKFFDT

[2] = molecular target: T2, Dpo1 exo- (SsoDpo1, B-family DNA polymerase) (Sulfolobus solfataricus, UniProt P26811 1-882, D231A;D318A)
T2 sequence: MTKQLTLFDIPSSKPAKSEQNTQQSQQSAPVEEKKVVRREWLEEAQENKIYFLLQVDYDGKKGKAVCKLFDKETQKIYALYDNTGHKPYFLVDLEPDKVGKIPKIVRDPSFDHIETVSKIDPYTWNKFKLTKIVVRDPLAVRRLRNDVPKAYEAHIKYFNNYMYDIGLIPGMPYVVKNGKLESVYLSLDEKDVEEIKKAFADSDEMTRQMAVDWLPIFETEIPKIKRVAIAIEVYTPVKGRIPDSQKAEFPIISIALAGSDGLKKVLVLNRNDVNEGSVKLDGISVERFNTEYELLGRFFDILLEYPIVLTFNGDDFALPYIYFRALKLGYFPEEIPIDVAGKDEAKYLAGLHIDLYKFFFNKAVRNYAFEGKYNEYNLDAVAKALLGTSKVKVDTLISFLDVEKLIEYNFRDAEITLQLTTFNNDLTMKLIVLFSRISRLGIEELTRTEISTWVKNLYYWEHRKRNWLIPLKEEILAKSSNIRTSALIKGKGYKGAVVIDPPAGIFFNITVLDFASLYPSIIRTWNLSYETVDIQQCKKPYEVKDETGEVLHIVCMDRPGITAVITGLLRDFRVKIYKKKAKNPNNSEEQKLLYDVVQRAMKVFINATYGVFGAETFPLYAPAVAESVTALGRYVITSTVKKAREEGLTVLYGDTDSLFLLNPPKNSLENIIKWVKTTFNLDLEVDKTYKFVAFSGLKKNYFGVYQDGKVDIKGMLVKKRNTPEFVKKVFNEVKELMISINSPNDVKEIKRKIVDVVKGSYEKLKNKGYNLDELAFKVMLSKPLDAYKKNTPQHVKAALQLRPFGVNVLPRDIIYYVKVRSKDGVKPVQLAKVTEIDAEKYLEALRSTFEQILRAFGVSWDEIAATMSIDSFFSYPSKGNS

[3] = molecular target: T2, Dpo1 exo- (SsoDpo1, B-family DNA …); remark: listed apart in the source
[4] = molecular target: T1, Dpo4 (SsoDpo4, Y-family DNA polymerase); remark: listed apart in the source
[5] = molecular target: T1, Dpo4 (SsoDpo4, Y-family DNA polymerase); remark: listed apart in the source
[6] = molecular target: T2, Dpo1 exo- (SsoDpo1, B-family DNA …); remark: listed apart in the source
[7] = molecular target: T2, Dpo1 exo- (SsoDpo1, B-family DNA …); remark: listed apart in the source
[8] = molecular target: T1, Dpo4 (SsoDpo4, Y-family DNA polymerase); remark: listed apart in the source

Work on TTTTTTTTTTCCCGGGCCGGCGTTTCGCCGGCCCGGG (structured_DNA) [37-nt hairpin primer-template, 5'-Cy3] yielded a Kd [1] of 444 ± 115 nM, a Kd [2] of 109 ± 16 nM and a Kd [3] of 144 ± 15 nM. It also gave a Kd [4] of 125 ± 51 nM, a Kd [5] of 133 ± 26 nM and a Kd [6] of 97 ± 3 nM. For the same binder, the Kd [7] was 198 ± 26 nM and the Kd [8] was 140 ± 66 nM.

Reference: paper PMC3477848 (Biochemistry, 2012)
